Data: US20230038638A1, “COMPLEMENT FACTOR I-RELATED COMPOSITIONS AND METHODS” (published 2023)
Where “and” joins values, the source holds several entries; their conditions need not be identical. Equal entries are not always repeated.

Key:
human C4b (human) = target: T1, human C4b (human) (UniProt P0C0L4)
T1 sequence: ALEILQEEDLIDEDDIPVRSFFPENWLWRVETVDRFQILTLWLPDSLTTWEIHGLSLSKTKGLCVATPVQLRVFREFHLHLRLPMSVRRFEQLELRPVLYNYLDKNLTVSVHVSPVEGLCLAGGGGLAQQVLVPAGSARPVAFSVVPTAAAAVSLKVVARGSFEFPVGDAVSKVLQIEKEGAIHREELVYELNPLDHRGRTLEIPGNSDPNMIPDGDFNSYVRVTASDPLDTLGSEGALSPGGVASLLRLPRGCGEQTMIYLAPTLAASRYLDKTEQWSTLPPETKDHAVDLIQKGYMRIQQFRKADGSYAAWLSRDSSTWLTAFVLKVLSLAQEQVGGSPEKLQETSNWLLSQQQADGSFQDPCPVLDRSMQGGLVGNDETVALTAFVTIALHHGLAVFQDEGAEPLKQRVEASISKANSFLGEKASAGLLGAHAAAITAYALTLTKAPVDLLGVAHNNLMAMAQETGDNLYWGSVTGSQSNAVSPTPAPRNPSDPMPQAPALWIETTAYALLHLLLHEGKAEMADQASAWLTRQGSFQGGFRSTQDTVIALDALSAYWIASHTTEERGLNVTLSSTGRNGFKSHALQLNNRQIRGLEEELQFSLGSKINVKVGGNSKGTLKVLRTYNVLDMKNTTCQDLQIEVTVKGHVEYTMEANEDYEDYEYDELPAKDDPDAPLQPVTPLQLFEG

[1] = target: soluble human C3b (human) (UniProt P01024)

Substance | C4b Screen Ref Fold (fold of reference) (human C4b (human)) | iC3b Screen Ref Fold (fold of reference) [1] | C4b Screen Ref Fold (fold of CFI-HSA wild type) (human C4b (human)) | iC3b Screen Ref Fold (fold of CFI-HSA wild type) [1]
CFI-HSA variant E461S (enzyme) | 1.32 | 0.95 | – | –
CFI-HSA variant E530F; S507A (enzyme) | – | – | 0.13 | -0.04
CFI-HSA T407G; Y408L; N531G (enzyme) | – | – | 0.46 | 1.43
CFI-HSA variant V390G (enzyme) | 0.5 | 0.35 | – | –
CFI-HSA variant D425K; Y408M; F537K; K504R; P558S (enzyme) | – | – | 0.08 | 1.49
CFI-HSA variant D425K; E530F; F537K; K504R (enzyme) | – | – | 0.02 | 0.13
CFI-HSA variant K504R; S507A (enzyme) | – | – | 0.18 | -0.02
CFI-HSA variant D425K; F537K (enzyme) | – | – | 0.22 | 2.11
CFI-HSA N531G; E457G; R462K; F464Y (enzyme) | – | – | 6.38 | 1.32
CFI-HSA E461Q; F464Y (enzyme) | – | – | 6.36 | 1.11
CFI-HSA variant L304G; P305G; K306G; L307G; S308G (enzyme) | 0 | 0.56 | – | –
CFI-HSA F464H (enzyme) | – | – | 0.1 | 0.23
CFI-HSA variant K312A; R314A (enzyme) | 0.58 | 0.48 | – | –
CFI-HSA variant D425K; E530F; F537K; K504R; P558S (enzyme) | – | – | 0.16 | 0.09
CFI-HSA F480Y (enzyme) | – | – | 1.84 | 1.14
CFI-HSA S507A; GGSSGG (SEQ ID NO: 6); CCP_1-4 (enzyme) | – | – | 0.43 | 0
CFI-HSA N531G; E461Q; R462K; F464Y (enzyme) | – | – | 6.37 | 1.54
CFI-HSA variant R557A; N531M; Y403F; K504Y; E457G; E461L (enzyme) | – | – | 3.18 | 0.46
CFI-HSA D506N (enzyme) | – | – | 0.03 | 0.05
CFI-HSA variant E530F; P558S (enzyme) | – | – | 0.34 and 0.16 | 1.4 and 1.38
CFI-HSA variant W381A; P384A (enzyme) | -0.05 | -0.03 | – | –
CFI-HSA D425V (enzyme) | – | – | 2.51 | 0.98
CFI-HSA variant G469L; R456N; K458A; E461G; F537K (enzyme) | -0.02 | 0.01 | – | –
CFI-HSA T346K; Y408L; K504D; E530K; N531G (enzyme) | – | – | 0.04 | 0.29
CFI-HSA K534E (enzyme) | – | – | 0.82 | 1.19

Now from value to substance:

C4b Screen Ref Fold (fold of reference) (human C4b (human)) | iC3b Screen Ref Fold (fold of reference) [1] | C4b Screen Ref Fold (fold of CFI-HSA wild type) (human C4b (human)) | iC3b Screen Ref Fold (fold of CFI-HSA wild type) [1] | Substance
0.59 | 0 | – | – | CFI-HSA fusion WT; GGSSGG (SEQ ID NO: 6); fH(ccp1); CR1(ccp16); fH(ccp3); fH(ccp4) (from UniProt P17927) (enzyme)
– | – | 6.83 | 1.76 | CFI-HSA N531G; E461Q; F464Y (enzyme)
– | – | 1.64 | 1.03 | CFI-HSA F537Y (enzyme)
– | – | 0.12 | 2.05 | CFI-HSA variant D425K; K504R (enzyme)
– | – | 0.02 | -0.05 | CFI-HSA D506Y (enzyme)
0.38 | 0.23 | – | – | CFI-HSA variant G406D; Y408L; P535A (enzyme)
– | – | 6.45 | 0.84 | CFI-HSA Y408L; N531G; E457G; F464Y (enzyme)
– | – | 0.17 | 1.19 | CFI-HSA variant K504R; P558S (enzyme)
-0.01 | 0.02 | – | – | CFI-HSA variant E461P (enzyme)
0.74 | 0.56 | – | – | CFI-HSA variant G344R (enzyme)
– | – | 1.6 | 1.91 | CFI-HSA D425F (enzyme)
– | – | 1.81 | 1.44 | CFI-HSA K534R (enzyme)
– | – | 0.48 | 1.56 | CFI-HSA F246Y (enzyme)
– | – | -0.01 | 0.71 | CFI-HSA variant Y393G (enzyme)
– | – | 0.12 | -0.01 | CFI-HSA Y408L; S507A; N531G (enzyme)
– | – | 6.44 | 1.29 | CFI-HSA Y408L; N531G (enzyme)
– | – | 4.83 | 1.39 | CFI-HSA E457G; Y408L (enzyme)
– | – | 0.6 | 1.5 | CFI-HSA F208Y (enzyme)
– | – | 6.67 | 1.55 | CFI-HSA N531G; E457G; E461Q; R462K (enzyme)
0.75 | 0.57 | – | – | CFI-HSA variant N531V (enzyme)
– | – | 0.18 | 0 | CFI-HSA H362T; R456I; S343K (enzyme)
– | – | 0.08 | -0.04 | CFI-HSA variant P558S; S507A (enzyme)
– | – | 0.97 | 0.91 | CFI-HSA K534F (enzyme)
– | – | 0.07 | 0.54 | CFI-HSA variant L386G (enzyme)
– | – | 0.39 | 0.04 | CFI-HSA D506T (enzyme)
– | – | 2.43 | 0.74 | CFI-HSA Y408L; E461Q; R462K; F464Y (enzyme)
0.73 | 1.54 | – | – | CFI-HSA variant F559L (enzyme)
– | – | 0.42 | 0.89 | CFI-HSA T407G; E457G (enzyme)
